One block for each binder: values may come before it.
Legend:
Human full length LILRB2 = target: T1, Human full length LILRB2 (human, UniProt Q8N423 22-597); assay: flow cytometry, displacement of PE-labelled HLA-A2, HLA-E and HLA-G multimers from HEK293 cells overexpressing LILRB2
T1 construct: Over-expressed on HEK293 cells for flow cytometry; Also used here as the parent protein of the D3-D4 peptide microarrays; also called LILRB2 on HEK293 cells
Method: (§1) To investigate if the Antibodies 1 to 5 could neutralize binding of other HLA-As to LILRB1 or to LILRB2, HEK293 cells overexpressing the receptors were incubated with constant concentrations of PE-labelled HLA-A2, HLA-E, and HLA-G multimers and increasing concentrations of Antibodies 1 to 5 or the reference antibodies. The ability to neutralize binding of HLA to the cells was determined by flow cytometry (FIG. 21). None of Antibodies 1 to 5 neutralized binding of HLA-A (A), HLA-E (B), and […] to LILRB1 protein, up to the concentrations of 100 nM, whereas Reference 1 antibody (LILRB1 specific) and Reference 3 antibody (LILRB1/2 specific) neutralized the binding with an IC₅₀ in the sub- or low-nM range. Similarly, none of Antibodies 1 to 5 neutralised efficiently the binding of HLA-A (E) and HLA-G (G). […] Reference Antibody 2 (LILRB2 specific) and Reference Antibody 3 (LILRB1/2 specific), inhibited the binding for all HLAs, with IC₅₀ with sub- or low-nM range.

Human full length LILRB1 = target: T2, Human full length LILRB1 (human, UniProt Q8NHL6 24-650); assay: flow cytometry, displacement of PE-labelled HLA-A2, HLA-E and HLA-G multimers from HEK293 cells overexpressing LILRB1
T2 construct: Over-expressed on HEK293 cells for flow cytometry; also called LILRB1 on HEK293 cells; cell membrane embedded LILRB1
Method: as §1

T1 sequence (Q8N423 other isoform, or with tags, fused parts or gaps limits assumed): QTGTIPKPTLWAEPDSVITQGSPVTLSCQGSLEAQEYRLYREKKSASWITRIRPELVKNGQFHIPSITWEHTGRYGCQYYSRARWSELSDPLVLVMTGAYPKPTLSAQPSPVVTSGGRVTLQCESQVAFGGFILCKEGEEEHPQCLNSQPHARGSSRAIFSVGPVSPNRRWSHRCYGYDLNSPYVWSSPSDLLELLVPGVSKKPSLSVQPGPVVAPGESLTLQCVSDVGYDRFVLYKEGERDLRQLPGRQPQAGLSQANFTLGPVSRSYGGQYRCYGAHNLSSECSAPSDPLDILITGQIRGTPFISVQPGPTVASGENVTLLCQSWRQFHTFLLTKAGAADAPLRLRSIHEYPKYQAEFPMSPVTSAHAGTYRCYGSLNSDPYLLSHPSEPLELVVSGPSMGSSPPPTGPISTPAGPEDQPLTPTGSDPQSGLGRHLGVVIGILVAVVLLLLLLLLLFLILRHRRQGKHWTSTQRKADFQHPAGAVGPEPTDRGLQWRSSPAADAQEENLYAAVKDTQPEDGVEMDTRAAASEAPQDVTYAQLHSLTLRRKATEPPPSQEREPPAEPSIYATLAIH
T2 sequence (Q8NHL6 24-650 limits assumed): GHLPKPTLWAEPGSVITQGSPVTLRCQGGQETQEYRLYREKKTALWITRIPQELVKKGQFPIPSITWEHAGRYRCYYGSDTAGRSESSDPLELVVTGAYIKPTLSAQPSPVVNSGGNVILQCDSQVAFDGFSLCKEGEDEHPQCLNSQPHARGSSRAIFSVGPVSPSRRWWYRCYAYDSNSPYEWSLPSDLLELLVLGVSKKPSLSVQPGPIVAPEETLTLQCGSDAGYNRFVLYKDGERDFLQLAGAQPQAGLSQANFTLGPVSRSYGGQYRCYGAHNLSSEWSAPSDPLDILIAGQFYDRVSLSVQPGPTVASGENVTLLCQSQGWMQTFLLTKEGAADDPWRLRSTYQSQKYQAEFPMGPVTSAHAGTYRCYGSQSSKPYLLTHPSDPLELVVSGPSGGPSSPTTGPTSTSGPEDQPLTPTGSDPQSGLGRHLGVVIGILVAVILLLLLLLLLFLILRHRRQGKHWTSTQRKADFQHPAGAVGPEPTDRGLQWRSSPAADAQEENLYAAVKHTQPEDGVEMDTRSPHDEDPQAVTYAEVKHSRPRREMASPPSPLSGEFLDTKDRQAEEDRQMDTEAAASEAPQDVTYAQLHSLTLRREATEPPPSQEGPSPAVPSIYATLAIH

binding result (Human full length LILRB2): binds
B1: Reference antibody 2 (anti-human LILRB2 Ab) (antibody, human IgG4 S228P, lambda, V domains shown)
VH: EVQLQQWGAGLLKPSETLSLTCAVYGGSFSGYYWSWIRQPPGKGLEWIGEINHAGSTNYNPSLKSRVTISVDTSKNQFSLKLSSVTAADTAVYYCARLPTRWVTTRYFDLWGRGTLVTVSS
VL: ESVLTQPPSVSGAPGQRVTISCTGSSSNIGAGYDVHWYQQLPGTAPKLLIYGDSNRPSGVPDRFSVSKSGASASLAITGLQAEDEADYYCQSFDNSLSAYVFGGGTQLTVLG

binding result (Human full length LILRB1): binds | binding result (Human full length LILRB2): binds
B2: Reference Antibody 3 (anti-human LILRB1 and LILRB2 Ab) (antibody, V domains shown)
VH: QVQLVQSGAEVKKPGASVKVSCKASGYTFTDYYINWVRQAPGQGLEWMGNVNPNDGGTTYNQKFKGRVTMTTDTSTSTAYMELRSLRSDDTAVYYCARREIYFYGTIYYYAMDYWGQGTLVTVSS
VL: DIQLTQSPSFLSASVGDRVTITCRASESVDYYGNSFMYWYQQKPGKAPKLLIYFASNLESGVPSRFSGSGSGTEFTLTISSLQPEDFATYYCQQNNEDPWTFGGGTKVEIK

— patent US20250197491A1 (MACOMICS, published 2025)
